Experimental data as given in article PMC12056017.

Key:
[1] = biological target: PD-1 ligand (PD-L1) fused to an intracellular monomeric green fluorescent protein (mGFP), Q9NZQ7; experiment: DNA-PAINT super-resolution microscopy with nearest-neighbour analysis (SPINNA); CHO cells co-expressing CD80-mCherry and PD-L1-mEGFP, fixed with 4% PFA; labelled with anti-mCherry and anti-GFP nanobodies; two-round Exchange-PAINT, ~3 nm localization precision; model of monomers, homodimers …; conditions: other: DNA-PAINT super-resolution microscopy with nearest-neighbour analysis (SPINNA)
[2] = biological target: T1, CD80 fused to intracellular monomeric Cherry (mCherry), P33681; experiment: DNA-PAINT super-resolution microscopy with nearest-neighbour analysis (SPINNA); CHO cells co-expressing CD80-mCherry and PD-L1-mEGFP, fixed with 4% PFA; labelled with anti-mCherry and anti-GFP nanobodies; two-round Exchange-PAINT, ~3 nm localization precision; model of monomers, homodimers and heterodimers fitted to nearest-neighbour distances with density masks; 3 cells; conditions: remark: other sources report otherwise
T1 chain: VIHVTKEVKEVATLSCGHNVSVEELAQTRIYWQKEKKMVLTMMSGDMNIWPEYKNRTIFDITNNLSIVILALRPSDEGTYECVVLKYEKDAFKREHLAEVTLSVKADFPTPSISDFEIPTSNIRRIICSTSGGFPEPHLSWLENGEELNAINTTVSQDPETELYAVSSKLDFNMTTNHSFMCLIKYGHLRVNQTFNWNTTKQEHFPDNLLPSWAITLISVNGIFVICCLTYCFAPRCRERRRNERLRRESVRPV

[3] = biological target: T1, CD80 fused to intracellular monomeric …; experiment: as above; conditions: remark: other sources report otherwise

Chain of PD-1 ligand (PD-L1) fused to an intracellular monomeric green fluorescent protein (mGFP), Q9NZQ7 (Q9NZQ7 19-290): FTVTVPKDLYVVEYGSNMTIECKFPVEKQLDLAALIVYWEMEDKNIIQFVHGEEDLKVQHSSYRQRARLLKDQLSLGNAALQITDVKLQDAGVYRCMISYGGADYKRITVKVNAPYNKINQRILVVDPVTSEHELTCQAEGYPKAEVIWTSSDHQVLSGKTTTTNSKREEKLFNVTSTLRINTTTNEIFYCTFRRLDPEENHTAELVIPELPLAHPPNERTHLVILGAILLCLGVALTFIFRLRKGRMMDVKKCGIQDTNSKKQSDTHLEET

B1: CD80 fused to intracellular monomeric Cherry (mCherry) (protein)
chain: T1 chain
percent of all molecules in heterodimers [1]: PD-L1 and CD80 heterodimers (27 ± 5) %

B2: CD80 fused to intracellular monomeric Cherry (mCherry), P33681 35-288 (ligand)
chain: T1 chain
percent of all molecules in homodimers [2]: 9% | percent of all molecules in homodimers [3]: 11%
